{"source": "paper PMC5173139", "about": "“Dual inhibition of ErbB1 and ErbB2 in cancer by recombinant human prolidase mutant hPEPD-G278D” (Oncotarget, 2016)", "molecules": {"B1": {"name": "hPEPD-G278D, enzymatically inactive mutant of recombinant human prolidase (enzyme)", "chain": "MAAATGPSFWLGNETLKVPLALFALNRQRLCERLRKNPAVQAGSIVVLQGGEETQRYCTDTGVLFRQESFFHWAFGVTEPGCYGVIDVDTGKSTLFVPRLPASHATWMGKIHSKEHFKEKYAVDDVQYVDEIASVLTSQKPSVLLTLRGVNTDSGSVCREASFDGISKFEVNNTILHPEIVECRVFKTDMELEVLRYTNKISSEAHREVMKAVKVGMKEYELESLFEHYCYSRGGMRHSSYTCICGSGENSAVLHYGHAGAPNDRTIQNGDMCLFDMDGEYYCFASDITCSFPANGKFTADQKAVYEAVLRSSRAVMGAMKPGVWWPDMHRLADRIHLEELAHMGILSGSVDAMVQAHLGAVFMPHGLGHFLGIDVHDVGGYPEGVERIDEPGLRSLRTARHLQPGMVLTVEPGIYFIDHLLDEALADPARASFLNREVLQRFRGFGGVRIEEDVVVTDSGIELLTCVPRTVEEIEACMAGCDKAFTPFSGPK"}, "B2": {"name": "recombinant human prolidase (peptidase D), hPEPD (enzyme, UniProt P12955 1-493, looked up)", "chain": "B1 chain with D278G", "notes": "source: E. coli, as previously described [13, 17]; not shown: His tag, C-terminal, kept"}}, "key": {"[1]": {"target": "ErbB1 ECD (Homo sapiens) (UniProt P00533)", "settings": "cited from earlier work"}, "[2]": {"target": "ErbB2 (Homo sapiens) (UniProt P04626)", "settings": "cited from earlier work"}, "[3]": {"target": "human ErbB1 mutant lacking ECD subdomain 4 (aa #481-620) (human) (UniProt P00533)", "test": "ELISA; as a1 but with lysates of CHO-K1 cells transiently transfected for 24 h with wild-type ErbB1 or a subdomain deletion mutant; equal amounts of ErbB1 protein by immunoblot densitometry"}, "[4]": {"target": "human ErbB1 mutant lacking ECD subdomain 1 (aa #1-165) (human) (UniProt P00533)", "test": "ELISA; as a1 but with lysates of CHO-K1 cells transiently transfected for 24 h with wild-type ErbB1 or a subdomain deletion mutant; equal amounts of ErbB1 protein by immunoblot densitometry"}, "[5]": {"target": "human ErbB1 mutant lacking ECD subdomain 3 (aa #311-480) (human) (UniProt P00533)", "test": "ELISA; as a1 but with lysates of CHO-K1 cells transiently transfected for 24 h with wild-type ErbB1 or a subdomain deletion mutant; equal amounts of ErbB1 protein by immunoblot densitometry"}, "[6]": {"target": "T1, human ErbB1, full length, stably expressed in CHO-K1 cells (CHO-K1/ErbB1) (human, UniProt P00533 25-1210)", "T1 construct": "human ErbB1 (EGF receptor), full length; source: CHO-K1, stably transfected (pCMV6-A-ERBB1-Puro, puromycin selection), in lysate", "test": "ELISA; wells coated with an antibody to the cytoplasmic tail of ErbB1; serially diluted His-tagged hPEPD or mutant plus CHO-K1/ErbB1 cell lysate (25 ug total protein), 37 C, 2 h; bound PEPD detected by biotin-conjugated anti-His antibody and streptavidin-HRP; CHO-K1 lysate as control", "settings": "one partner purified"}}, "note": "Substitutions are numbered along the chain they refer to. Names and notes keep the numbering of the source."}
{"molecule": "prolidase (PEPD) (from UniProt P12955)", "values": [{"measurement": "Kd", "setting": "[1]", "result": 5, "unit": "µM"}, {"measurement": "Kd", "setting": "[2]", "result": 7.3, "unit": "nM"}]}
{"molecule": "B1", "values": [{"measurement": "fold reduction of binding affinity (Kd) against wild-type ErbB1", "setting": "[3]", "result": 1.4, "unit": "fold"}, {"measurement": "fold reduction of binding affinity (Kd) against wild-type ErbB1", "setting": "[4]", "result": 19.2, "unit": "fold"}, {"measurement": "fold reduction of binding affinity (Kd) against wild-type ErbB1", "setting": "[5]", "result": 7.4, "unit": "fold"}]}
{"molecule": "B2", "values": [{"measurement": "Kd", "setting": "[6]", "result": 17.7, "unit": "nM"}]}
